Source: patent US6046310, “FAS ligand fusion proteins and their uses” (Protein Design Labs., Inc., dated 2000)
Where a chain is given by its changes, count along the chain named. In names and notes the source's numbering stands.

B1: HuABL364 Ig-FasL5 (other)
heavy (part 1 of 2): EVQLLESGGGLVQPGGSLRLSCAASGFTFSDYYMYWVRQAPEKRLEWVAYISNGGGSSHYVDSVKGRFTISRDNAKNTLYLQMNSLRAEDTALYHCARGMDYGAWFAYWGQGTLVTVSS
heavy (part 2 of 2): GTGHPSPPPEKKELRKVAHLTGKSNSRSMPLEWEDTYGIVLLSGVKYKKGGLVINETGLYFVYSKVYFRGQSCNNLPLSHKVYMRNSKYPQDLVMMEGKMMSYCTTGQMWARSSYLGAVFNLTSADHLYVNVSELSLVNFEESQTFFGLYKL
light: DIVMTQSPLSLPVTPGEPASISCRSSQSIVHSNGNTYLEWYLQKPGQSPQLLISKVSNRFSGVPDRFSGSGSGTDFTLKISRVEAEDVGVYYCFQGSHVPFTFGQGTKLEIK
B2: HuABL364 Ig-FasL5 H148S (other)
heavy (part 1 of 2): B1 heavy (part 1 of 2)
heavy (part 2 of 2): B1 heavy (part 2 of 2) with H19S
light: B1 light
B3: HuABL364 Ig-FasL5 Y192A (other)
heavy (part 1 of 2): B1 heavy (part 1 of 2)
heavy (part 2 of 2): B1 heavy (part 2 of 2) with Y63A
light: B1 light
B4: HuABL364 Ig-FasL5 V248A (other)
heavy (part 1 of 2): B1 heavy (part 1 of 2)
heavy (part 2 of 2): B1 heavy (part 2 of 2) with V119A
light: B1 light
B5: HuABL364 Ig-FasL5 M229A (other)
heavy (part 1 of 2): B1 heavy (part 1 of 2)
heavy (part 2 of 2): B1 heavy (part 2 of 2) with M100A
light: B1 light
B6: HuABL364 Ig-FasL5 Y232A (other)
heavy (part 1 of 2): B1 heavy (part 1 of 2)
heavy (part 2 of 2): B1 heavy (part 2 of 2) with Y103A
light: B1 light
B7: HuABL364 Ig-FasL5 Y189A (other)
heavy (part 1 of 2): B1 heavy (part 1 of 2)
heavy (part 2 of 2): B1 heavy (part 2 of 2) with Y60A
light: B1 light
B8: HuABL364 antibody (antibody, V domains shown)
VH: B1 heavy (part 1 of 2)
VL: B1 light
B9: HuABL364 Ig-FasL5 L170A (other)
heavy (part 1 of 2): B1 heavy (part 1 of 2)
heavy (part 2 of 2): B1 heavy (part 2 of 2) with L41A
light: B1 light
B10: HuABL364 Ig-FasL5 Y244A (other)
heavy (part 1 of 2): B1 heavy (part 1 of 2)
heavy (part 2 of 2): B1 heavy (part 2 of 2) with Y115A
light: B1 light
B11: HuABL364 Ig-FasL5 I168A (other)
heavy (part 1 of 2): B1 heavy (part 1 of 2)
heavy (part 2 of 2): B1 heavy (part 2 of 2) with I39A
light: B1 light

Legend:
[1] = target: T1, Fas on the cell surface of human cell lines (MOLT-4, CESS, T47D) (human, UniProt P25445); experiment: cell-based or functional assay
[2] = target: T1, Fas on the cell surface of human cell …; experiment: flow cytometry on MOLT-4 cells (express Fas but not the antigen for HuABL364), anti-human IgG FITC
Description: MOLT-4, a human T lymphocyte line that expresses Fas on the cell surface (B. Trauth et al., *Science*, 245:301, 1989, incorporated herein by reference) but not the antigen for HuABL364, was stained by incubation with protein G-purified HuABL364 lg-FasL followed by incubation with an anti-human IgG FITC reagent (Jackson Immunoresearch, #715-096-151). Positive staining by HuABL364 Ig-FasL was detected by flow cytometry, compared to negative staining with the HuABL364 antibody.

Binder | % apoptotic cells, CESS [1] [% apoptotic cells] | % apoptotic cells, T47D [1] [% apoptotic cells] | binding result [2]
B1 | 88 | 91 | –
B2 | 26 | 15 | –
B3 | 25 | 10 | –
B4 | 87 | 95 | –
B5 | 90 | 95 | –
B6 | 32 | 88 | –
B7 | 24 | 11 | –
B8 | – | – | no binding
B9 | 87 | 98 | –
B10 | 24 | 16 | –
B11 | 81 | 91 | –
